Our source for the screen value values is PMC5081367.

B1: wild type Lck (WT) [not stated] / receptor for activated C kinase 1 (RACK1), endogenous in NIH3T3 [mouse (endogenous in NIH3T3)] (parent)
chain 1: MGCVCSSNPEDDWMENIDVCENCHYPIVPLDSKISLPIRNGSEVRDPLVTYEGSLPPASPLQDNLVIALHSYEPSHDGDLGFEKGEQLRILEQSGEWWKAQSLTTGQEGFIPFNFVAKANSLEPEPWFFKNLSRKDAERQLLAPGNTHGSFLIRESESTAGSFSLSVRDFDQNQGEVVKHYKIRNLDNGGFYISPRITFPGLHDLVRHYTNASDGLCTKLSRPCQTQKPQKPWWEDEWEVPRETLKLVERLGAGQFGEVWMGYYNGHTKVAVKSLKQGSMSPDAFLAEANLMKQLQHPRLVRLYAVVTQEPIYIITEYMENGSLVDFLKTPSGIKLNVNKLLDMAAQIAEGMAFIEEQNYIHRDLRAANILVSDTLSCKIADFGLARLIEDNEYTAREGAKFPIKWTAPEAINYGTFTIKSDVWSFGILLTEIVTHGRIPYPGMTNPEVIQNLERGYRMVRPDNCPEELYHLMMLCWKERPEDRPTFDYLRSVLDDFFTATEGQYQPQP
chain 2: not shown

In this assay the parent is B1. The experiment in a line: co-immunoprecipitation (IP: RACK1, blot anti-Lck), quantified. The conditions noted are these: with receptor for activated C kinase 1 (RACK1), NIH3T3 Lck infectants, three independent experiments, mean ± SD, parent: 1, read off a plot.
Regarding chain 1 W97K Y505F, the screen value was found to be 0.12.
The value for chain 1 Y505F was 1; that for chain 1 R154K Y505F was 0.38.
